Assay [1] deals with human Integrin αVβ3 (human) (UniProt P06756). The experiment in a line: flow cytometry, M21 melanoma cells, 0.5 µg antibody per 5x10^5 cells, against isotype matched control.
The target in assay [2] is Rat Integrin αvβ3 (Rat) (UniProt Q8R2H2). Briefly: flow cytometry, RG2 rat glioma cells, 0.5 µg antibody per 5x10^5 cells, against isotype matched control. For orientation: Flow cytometry measures light scatter and fluorescence of single cells or particles in a stream.
The target in assay [3] is Rabbit Integrin αvβ3 (Rabbit). The experiment in a line: flow cytometry, VX7 rabbit carcinoma cells, 0.5 µg antibody per 5x10^5 cells, against isotype matched control.
In assay [4] the target is human Integrin αVβ3 (human) (UniProt P06756). The experiment in a line: flow cytometry, HMVEC endothelial cells, 0.5 µg antibody per 5x10^5 cells, against isotype matched control.
In assay [5] the target is Hamster Integrin αvβ3 (Hamster). Briefly: flow cytometry, CCL-49 hamster melanoma cells, 0.5 µg antibody per 5x10^5 cells, against isotype matched control.
The target is the same in assay [6]. Briefly: binding of 125I-labeled Vitaxin to cell lines.
Assay [7] concerns the target Rabbit Integrin αvβ3 (Rabbit). Briefly: binding of 125I-labeled Vitaxin to cell lines.
Assay [8] concerns the target human Integrin αVβ3 (human) (UniProt P06756). The experiment in a line: binding of 125I-labeled Vitaxin to M21 human melanoma cells.
Assay [9] addresses Rabbit Integrin αvβ3 (Rabbit). The experiment in a line: binding of 125I-labeled Vitaxin to VX7 rabbit carcinoma cells.
Assay [10] deals with Hamster Integrin αvβ3 (Hamster). Briefly: binding of 125I-labeled Vitaxin to CCL-49 hamster melanoma cells.
The target in assay [11] is human Integrin αVβ3 (human) (UniProt P06756). Briefly: binding of 125I-labeled Vitaxin to HUVEC primary human endothelium.
The target in assay [12] is Rabbit Integrin αvβ3 (Rabbit). Briefly: binding of 125I-labeled Vitaxin to RK1 rabbit kidney epithelium cells.

Rat Integrin αvβ3 (Rat), sequence (Q8R2H2 26-787): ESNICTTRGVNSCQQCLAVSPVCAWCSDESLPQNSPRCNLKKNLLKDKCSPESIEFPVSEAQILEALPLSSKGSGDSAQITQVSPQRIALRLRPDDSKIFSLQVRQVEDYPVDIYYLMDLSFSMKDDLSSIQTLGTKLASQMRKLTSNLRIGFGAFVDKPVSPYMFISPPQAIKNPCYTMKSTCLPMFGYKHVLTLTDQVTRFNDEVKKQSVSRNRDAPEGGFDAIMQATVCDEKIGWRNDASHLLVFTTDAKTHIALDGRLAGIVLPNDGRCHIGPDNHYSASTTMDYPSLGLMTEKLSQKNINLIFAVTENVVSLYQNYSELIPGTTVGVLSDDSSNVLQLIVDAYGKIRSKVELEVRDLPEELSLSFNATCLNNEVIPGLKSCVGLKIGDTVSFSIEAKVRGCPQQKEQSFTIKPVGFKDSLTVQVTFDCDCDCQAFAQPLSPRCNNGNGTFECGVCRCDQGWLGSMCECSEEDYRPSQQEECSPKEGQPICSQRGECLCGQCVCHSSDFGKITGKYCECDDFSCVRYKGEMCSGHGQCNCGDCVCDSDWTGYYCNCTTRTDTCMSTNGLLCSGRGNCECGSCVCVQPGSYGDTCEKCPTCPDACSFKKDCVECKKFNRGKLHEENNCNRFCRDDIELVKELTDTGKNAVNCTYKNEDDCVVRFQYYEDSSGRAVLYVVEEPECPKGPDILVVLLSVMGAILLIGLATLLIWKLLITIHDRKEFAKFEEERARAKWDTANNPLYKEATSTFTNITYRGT
human Integrin αVβ3 (human), sequence (P06756 31-1048, chain 1 of 2): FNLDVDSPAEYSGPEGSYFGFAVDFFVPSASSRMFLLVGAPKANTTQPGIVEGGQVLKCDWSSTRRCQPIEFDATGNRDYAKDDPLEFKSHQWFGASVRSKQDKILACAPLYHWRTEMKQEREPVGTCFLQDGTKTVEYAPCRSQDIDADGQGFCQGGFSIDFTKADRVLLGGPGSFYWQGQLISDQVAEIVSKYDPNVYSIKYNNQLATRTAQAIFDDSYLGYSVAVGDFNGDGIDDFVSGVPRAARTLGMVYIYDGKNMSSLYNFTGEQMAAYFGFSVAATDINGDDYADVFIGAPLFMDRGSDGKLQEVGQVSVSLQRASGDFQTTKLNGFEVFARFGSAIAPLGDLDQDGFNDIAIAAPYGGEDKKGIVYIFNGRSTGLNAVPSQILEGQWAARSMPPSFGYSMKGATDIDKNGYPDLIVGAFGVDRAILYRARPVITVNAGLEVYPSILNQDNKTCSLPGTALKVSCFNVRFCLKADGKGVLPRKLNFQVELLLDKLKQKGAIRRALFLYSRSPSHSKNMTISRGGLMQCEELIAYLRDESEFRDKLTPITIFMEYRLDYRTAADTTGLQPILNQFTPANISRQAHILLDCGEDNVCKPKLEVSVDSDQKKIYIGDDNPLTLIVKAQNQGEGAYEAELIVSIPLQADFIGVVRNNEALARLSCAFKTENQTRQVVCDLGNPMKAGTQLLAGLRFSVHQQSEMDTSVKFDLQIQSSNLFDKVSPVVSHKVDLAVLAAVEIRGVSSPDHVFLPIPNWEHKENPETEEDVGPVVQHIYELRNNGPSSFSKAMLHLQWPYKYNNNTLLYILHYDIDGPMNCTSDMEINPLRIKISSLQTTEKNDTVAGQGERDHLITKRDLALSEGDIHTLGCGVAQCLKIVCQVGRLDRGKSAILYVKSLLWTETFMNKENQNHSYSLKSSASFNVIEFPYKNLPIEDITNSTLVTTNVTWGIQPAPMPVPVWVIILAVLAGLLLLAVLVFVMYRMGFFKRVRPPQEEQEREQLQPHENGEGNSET
human Integrin αVβ3 (human), sequence (P05106 27-788, chain 2 of 2, further chain): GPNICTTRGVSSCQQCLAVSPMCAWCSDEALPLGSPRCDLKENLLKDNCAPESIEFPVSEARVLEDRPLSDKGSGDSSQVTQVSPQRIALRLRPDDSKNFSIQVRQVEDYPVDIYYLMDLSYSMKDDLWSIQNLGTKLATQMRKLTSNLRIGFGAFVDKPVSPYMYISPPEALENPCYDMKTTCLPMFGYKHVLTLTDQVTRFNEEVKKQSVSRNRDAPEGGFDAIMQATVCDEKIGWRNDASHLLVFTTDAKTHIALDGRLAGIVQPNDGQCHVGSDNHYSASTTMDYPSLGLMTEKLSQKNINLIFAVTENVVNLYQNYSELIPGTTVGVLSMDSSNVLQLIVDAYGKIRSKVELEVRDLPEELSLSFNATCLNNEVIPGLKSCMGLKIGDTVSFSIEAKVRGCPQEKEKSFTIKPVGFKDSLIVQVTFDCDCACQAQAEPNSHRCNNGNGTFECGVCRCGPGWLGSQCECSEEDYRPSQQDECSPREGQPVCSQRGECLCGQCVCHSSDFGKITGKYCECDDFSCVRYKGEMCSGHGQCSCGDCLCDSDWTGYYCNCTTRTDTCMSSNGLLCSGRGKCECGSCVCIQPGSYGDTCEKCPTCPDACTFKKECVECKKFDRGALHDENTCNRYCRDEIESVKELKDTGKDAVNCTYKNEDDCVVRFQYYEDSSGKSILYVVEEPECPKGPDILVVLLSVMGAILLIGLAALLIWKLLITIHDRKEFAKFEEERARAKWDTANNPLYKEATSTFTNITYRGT

F11, mouse anti-rat β3 mAb (antibody): the Fold Increase Over Control (mean channel fluorescence) amounted to 0.99 fold in [1], 11 fold in [2] and 1 fold in assay [3].
For the substance “LM609, mouse anti-human αVβ3 Integrin mAb (antibody)”, the Fold Increase Over Control (mean channel fluorescence) was 65 fold in [1]; 2.3 fold in assay [2]; 4.3 fold in [4]; 3 fold in [3]; 7.2 fold in [5].
In general, Kd refers to the equilibrium constant for the complex coming apart. Read a low Kd as higher affinity. For the substance “Vitaxin® (humanized monoclonal antibody MEDI-522)”, the fold lower affinity than for human αvβ3 lay within 2 to 3 fold in assay [6] and 4 to 10 fold in assay [7]. For the same substance, the Binding Sites (binding sites) in assay [8] came to 130000; in assay [9], 160000; in assay [11], 81000; in [12] it was 42000. The Kd in [8] stood at 2.2 nM; in assay [9] it was 8.9 nM; in assay [10], 6.9 nM; in assay [11], 3.3 nM; in assay [12], 23 nM. The Fold Increase Over Control (mean channel fluorescence) in [1] worked out at 73 fold; in assay [2], 0.95 fold; in [4], 8.9 fold; in assay [3], 17 fold; in assay [5], 12 fold.
